# Reference: patent publication US20240287479A1, “GLYCOSYLTRANSFERASE MUTANT, AND METHOD FOR CATALYTIC SYNTHESIS OF REBAUDIOSIDE M USING GLYCOSYLTRANSFERASE MUTANT” (XINGHUA GL STEVIA CO., LTD, priority 2021, published 2024)
# B1: UGT76G1: wild-type Stevia rebaudiana-derived glycosyltransferase, amino acid sequence SEQ ID NO: 1 (protein)
# chain: MENKTETTVRRRRRIILFPVPFQGHINPILQLANVLYSKGFSITIFHTNFNKPKTSNYPHFTFRFILDNDPQDERISNLPTHGPLAGMRIPIINEHGADELRRELELLMLASEEDEEVSCLITDALWYFAQSVADSLNLRRLVLMTSSLFNFHAHVSLPQFDELGYLDPDDKTRLEEQASGFPMLKVKDIKSAYSNWQILKEILGKMIKQTKASSGVIWNSFKELEESELETVIREIPAPSFLIPLPKHLTASSSSLLDHDRTVFQWLDQQPPSSVLYVSFGSTSEVDEKDFLEIARGLVDSKQSFLWVVRPGFVKGSTWVEPLPDGFLGERGRIVKWVPQQEVLAHGAIGAFWTHSGWNSTLESVCEGVPMIFSDFGLDQPLNARYMSDVLKVGVYLENGWERGEIANAIRRVMVDEEGEYIRQNARVLKQKADVSLMKGGSSYESLESLVSYISSL
# modifications: The sequence is synthetized.
# B2: S147N-StSUS1: recombinase (crude enzyme) from E. coli BL21 (DE3) co-expressing mutant S147N and sucrose synthase StSUS1 (protein)
# chain: MENKTETTVRRRRRIILFPVPFQGHINPILQLANVLYSKGFSITIFHTNFNKPKTSNYPHFTFRFILDNDPQDERISNLPTHGPLAGMRIPIINEHGADELRRELELLMLASEEDEEVSCLITDALWYFAQSVADSLNLRRLVLMTNSLFNFHAHVSLPQFDELGYLDPDDKTRLEEQASGFPMLKVKDIKSAYSNWQILKEILGKMIKQTKASSGVIWNSFKELEESELETVIREIPAPSFLIPLPKHLTASSSSLLDHDRTVFQWLDQQPPSSVLYVSFGSTSEVDEKDFLEIARGLVDSKQSFLWVVRPGFVKGSTWVEPLPDGFLGERGRIVKWVPQQEVLAHGAIGAFWTHSGWNSTLESVCEGVPMIFSDFGLDQPLNARYMSDVLKVGVYLENGWERGEIANAIRRVMVDEEGEYIRQNARVLKQKADVSLMKGGSSYESLESLVSYISSL
# B3: S147D-StSUS1: recombinase (crude enzyme) from E. coli BL21 (DE3) co-expressing mutant S147D and sucrose synthase StSUS1 (protein)
# chain: MENKTETTVRRRRRIILFPVPFQGHINPILQLANVLYSKGFSITIFHTNFNKPKTSNYPHFTFRFILDNDPQDERISNLPTHGPLAGMRIPIINEHGADELRRELELLMLASEEDEEVSCLITDALWYFAQSVADSLNLRRLVLMTDSLFNFHAHVSLPQFDELGYLDPDDKTRLEEQASGFPMLKVKDIKSAYSNWQILKEILGKMIKQTKASSGVIWNSFKELEESELETVIREIPAPSFLIPLPKHLTASSSSLLDHDRTVFQWLDQQPPSSVLYVSFGSTSEVDEKDFLEIARGLVDSKQSFLWVVRPGFVKGSTWVEPLPDGFLGERGRIVKWVPQQEVLAHGAIGAFWTHSGWNSTLESVCEGVPMIFSDFGLDQPLNARYMSDVLKVGVYLENGWERGEIANAIRRVMVDEEGEYIRQNARVLKQKADVSLMKGGSSYESLESLVSYISSL
# B4: T284S-StSUS1: recombinase (crude enzyme) from E. coli BL21 (DE3) co-expressing mutant T284S and sucrose synthase StSUS1 (protein)
# chain: MENKTETTVRRRRRIILFPVPFQGHINPILQLANVLYSKGFSITIFHTNFNKPKTSNYPHFTFRFILDNDPQDERISNLPTHGPLAGMRIPIINEHGADELRRELELLMLASEEDEEVSCLITDALWYFAQSVADSLNLRRLVLMTSSLFNFHAHVSLPQFDELGYLDPDDKTRLEEQASGFPMLKVKDIKSAYSNWQILKEILGKMIKQTKASSGVIWNSFKELEESELETVIREIPAPSFLIPLPKHLTASSSSLLDHDRTVFQWLDQQPPSSVLYVSFGSSSEVDEKDFLEIARGLVDSKQSFLWVVRPGFVKGSTWVEPLPDGFLGERGRIVKWVPQQEVLAHGAIGAFWTHSGWNSTLESVCEGVPMIFSDFGLDQPLNARYMSDVLKVGVYLENGWERGEIANAIRRVMVDEEGEYIRQNARVLKQKADVSLMKGGSSYESLESLVSYISSL
# B5: L200Y: UGT76G1 (SEQ ID NO: 1) mutant, position 200 leucine to tyrosine (protein)
# chain: MENKTETTVRRRRRIILFPVPFQGHINPILQLANVLYSKGFSITIFHTNFNKPKTSNYPHFTFRFILDNDPQDERISNLPTHGPLAGMRIPIINEHGADELRRELELLMLASEEDEEVSCLITDALWYFAQSVADSLNLRRLVLMTSSLFNFHAHVSLPQFDELGYLDPDDKTRLEEQASGFPMLKVKDIKSAYSNWQIYKEILGKMIKQTKASSGVIWNSFKELEESELETVIREIPAPSFLIPLPKHLTASSSSLLDHDRTVFQWLDQQPPSSVLYVSFGSTSEVDEKDFLEIARGLVDSKQSFLWVVRPGFVKGSTWVEPLPDGFLGERGRIVKWVPQQEVLAHGAIGAFWTHSGWNSTLESVCEGVPMIFSDFGLDQPLNARYMSDVLKVGVYLENGWERGEIANAIRRVMVDEEGEYIRQNARVLKQKADVSLMKGGSSYESLESLVSYISSL
# modifications: The sequence is synthetized.
# B6: G378P-StSUS1: recombinase (crude enzyme) from E. coli BL21 (DE3) co-expressing mutant G378P and sucrose synthase StSUS1 (protein)
# chain: MENKTETTVRRRRRIILFPVPFQGHINPILQLANVLYSKGFSITIFHTNFNKPKTSNYPHFTFRFILDNDPQDERISNLPTHGPLAGMRIPIINEHGADELRRELELLMLASEEDEEVSCLITDALWYFAQSVADSLNLRRLVLMTSSLFNFHAHVSLPQFDELGYLDPDDKTRLEEQASGFPMLKVKDIKSAYSNWQILKEILGKMIKQTKASSGVIWNSFKELEESELETVIREIPAPSFLIPLPKHLTASSSSLLDHDRTVFQWLDQQPPSSVLYVSFGSTSEVDEKDFLEIARGLVDSKQSFLWVVRPGFVKGSTWVEPLPDGFLGERGRIVKWVPQQEVLAHGAIGAFWTHSGWNSTLESVCEGVPMIFSDFPLDQPLNARYMSDVLKVGVYLENGWERGEIANAIRRVMVDEEGEYIRQNARVLKQKADVSLMKGGSSYESLESLVSYISSL
# B7: S285W-StSUS1: recombinase (crude enzyme) from E. coli BL21 (DE3) co-expressing mutant S285W and sucrose synthase StSUS1 (protein)
# chain: MENKTETTVRRRRRIILFPVPFQGHINPILQLANVLYSKGFSITIFHTNFNKPKTSNYPHFTFRFILDNDPQDERISNLPTHGPLAGMRIPIINEHGADELRRELELLMLASEEDEEVSCLITDALWYFAQSVADSLNLRRLVLMTSSLFNFHAHVSLPQFDELGYLDPDDKTRLEEQASGFPMLKVKDIKSAYSNWQILKEILGKMIKQTKASSGVIWNSFKELEESELETVIREIPAPSFLIPLPKHLTASSSSLLDHDRTVFQWLDQQPPSSVLYVSFGSTWEVDEKDFLEIARGLVDSKQSFLWVVRPGFVKGSTWVEPLPDGFLGERGRIVKWVPQQEVLAHGAIGAFWTHSGWNSTLESVCEGVPMIFSDFGLDQPLNARYMSDVLKVGVYLENGWERGEIANAIRRVMVDEEGEYIRQNARVLKQKADVSLMKGGSSYESLESLVSYISSL
# Assays:
# Type in all cases: biochemical
# [1] = Kinetic parameters of purified glycosyltransferases for rebaudioside D; settings: substrate RebD, purified enzyme
# Method: (§1) Activities of glycosyltransferase mutants and a WT glycosyltransferase were determined. A 3 mL catalytic reaction system was prepared from the following components: 1.2 mM rebaudioside E, 2 mM UDPG, 3 mM MgCl2, crude enzyme: 1 mg, and 100 mM potassium phosphate buffer with a pH of 7.2: the balance. A catalytic reaction was conducted on a shaker at 37° C. and 200 rpm, where a sample was collected at 0 min and 30 min. Sample treatment: 500 μL of a sample solution was pipetted and added to an EP tube; the EP tube was placed in boiling water at 95° C. for 15 min to stop a reaction, and then centrifuged in a centrifuge at 12,000 rpm for 1 min; and a resulting supernatant was collected and added to a new EP tube, filtered through an organic filter membrane (0.45 μm), and stored in a liquid-phase sample bottle for high-performance liquid chromatography (HPLC) analysis. Definition of an enzyme activity (U): an enzyme amount required for producing 1 μmol of a product within 1 min is defined as 1 enzyme activity unit.
# (§2) A final concentration of rebaudioside E was set to 10 μM to 2,000 μM or a final concentration of rebaudioside D was set to 50 μM to 2,000 μM. Rebaudioside E or rebaudioside D solutions of different concentrations each were mixed with an appropriate amount of each of the purified WT UGT76G1 and the mutant S195Q, and an enzyme activity was determined according to the enzyme activity assay method described above. A Michaelis Menten equation was used to calculate Kn, Vmax, Keat, and Keat/Km of the purified WT glycosyltransferase and the glycosyltransferase mutant.
# [2] = Kinetic parameters of purified glycosyltransferases for rebaudioside E; settings: substrate RebE, purified enzyme
# Method: as §1, §2
# [3] = Preliminary screening: conversion of RebE by crude recombinases; settings: 40° C., 12 h; for catalytic activity / conversion rate for RebE (in words): RebE 10 g/L
# Method: Recombinases were prepared with the mutant strains G87D-StSUS1, S147D-StSUS1, S147N-StSUS1, S195Q-StSUS1, L200Y-StSUS1, T284S-StSUS1, S285W-StSUS1, and G378P-StSUS1 and the WT strain UGT76G1-StSUS1, and then used to convert RebE or RebD to preliminarily screen out relatively-preferred mutants.
# The conversion of RebE adopted a 3 mL reaction system including. RebE as a substrate: 10 g/L, sucrose: 30 g/L, crude enzyme: 5 mg/mL, and 100 mM potassium phosphate buffer (pH 7.2): the balance. A RebE conversion reaction was conducted on a shaker at 40° C. and 200 rpm for 12 h, and corresponding conversion rates were shown in FIG. 1.
# [4] = Crude enzyme activity of glycosyltransferase mutants and WT (HPLC); settings: 1.2 mM rebaudioside E, 2 mM UDPG, crude enzyme 1 mg, 37° C., 30 min
# Method: as §1
# The four mutant strains S195Q-StSUS1, L200Y-StSUS1, T284S-StSUS1, and S285W-StSUS1 screened out in the above conversion experiment were used to produce glycosyltransferase mutants, and the glycosyltransferase mutants and the WT glycosyltransferase UGT76G1 were tested for activities. […] Thus, the optimal mutant strain S195Q-StSUS1 was screened out.
molecule,measurement,setting,value
B1,Kcat,[1],0.20 ± 0.005 s⁻¹
same,Km,[1],478 ± 33 µM
same,Kcat,[2],2.00 ± 0.03 s⁻¹
same,Km,[2],170 ± 12.6 µM
B2,catalytic activity / conversion rate for RebE (in words),[3],basically no catalytic activity
B3,catalytic activity / conversion rate for RebE (in words),[3],low conversion rate
B4,RebE conversion rate relative to UGT76G1-StSUS1,[3],1.1 times
B5,enzyme activity (in words),[4],low enzyme activity
B6,catalytic activity / conversion rate for RebE (in words),[3],basically no catalytic activity
B7,RebE conversion rate relative to UGT76G1-StSUS1,[3],1.1 times
